Data: patent publication US20150037339A1 (Regeneron, published 2015)

How the values were obtained:
Activin A [1] = molecular target: T1, Activin A (human, UniProt P08476 311-426); assay: Octet cross-competition; binder on anti-hFc tip; 50 nM hActivin A pre-bound with 1 uM H4H10446P2 (col 1); white box
T1 construct: Homodimer of two βA subunits; bought from R&D Systems (#338-AC); also called inhibin-βA dimer; human Activin A
T1 sequence: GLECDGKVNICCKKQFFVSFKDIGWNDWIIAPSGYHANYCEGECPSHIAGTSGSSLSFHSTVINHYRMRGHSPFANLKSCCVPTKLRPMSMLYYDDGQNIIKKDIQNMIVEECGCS
Experimental: (§1) No. 8,309,082) and Control 3 (MAB3381, available from R&D Systems, Inc., Minneapolis, Minn.) were also included in the assays. All assays were performed at 25° C. with a microtiter plate shaking rate of 1000 rpm in Octet HBST buffer (0.01 M HEPES pH7.4, 0.15M NaCl, 3 mM EDTA, 0.05% v/v Surfactant P20, 0.1 mg/mL BSA) according to manufacturer's instructions (ForteBio Corp., Menlo Park, Calif.). […] Any remaining anti-hFc binding sites on the tips were blocked by incubating the tips in a 50 ug/mL solution of irrelevant antibody for 5 minutes.

Activin A [2] = molecular target: T1, Activin A; assay: Octet cross-competition; binder on anti-hFc tip; 50 nM hActivin A pre-bound with 1 uM H4H10442P2 (col 3); white box
Experimental: as §1

Activin A [3] = molecular target: T1, Activin A; assay: Octet cross-competition; binder on anti-hFc tip; 50 nM hActivin A pre-bound with 1 uM H4H10430P (col 5); black box
Experimental: as §1

Activin A [4] = molecular target: T1, Activin A; assay: SPR, captured mAb, 37C; no dissociation observed, kd fixed
Experimental: Antibody-antigen association was monitored for 240 seconds while dissociation in buffer was monitored for 600 seconds. Kinetic association and dissociation rate constants were determined by processing and fitting the data using Scrubber software version 2.0c. Binding equilibrium dissociation constants (KD) and dissociative half-lives (t_{1/2}) were then calculated from the kinetic rate constants as: KD (M)=kd/kₐ and t_{1/2} (min)=[ln 2/(60*kd)]. (NB=no binding observed under the conditions used; NT=not tested).

Activin A [5] = molecular target: T1, Activin A; assay: Octet cross-competition; binder on anti-hFc tip; 50 nM hActivin A mixed with 1 uM Isotype control 12 (-) (col 12); dark grey box
Experimental: as §1

Activin A [6] = molecular target: T1, Activin A; assay: Octet cross-competition; binder on anti-hFc tip; 50 nM hActivin A pre-bound with 1 uM Control 3 (col 11); black box
Experimental: as §1

Activin B [7] = molecular target: T2, Activin B (human, UniProt P09529 293-407); assay: SPR, captured mAb, 37C
T2 construct: Homodimer of two βB subunits; R&D Systems #659-AB
T2 chain: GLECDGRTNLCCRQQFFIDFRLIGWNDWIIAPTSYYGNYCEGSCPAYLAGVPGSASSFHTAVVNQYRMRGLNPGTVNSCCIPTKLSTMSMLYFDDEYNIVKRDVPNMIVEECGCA
Method in brief: (§2)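 Antibodies were captured and activin variants injected, with association monitored for 240 s and dissociation for 600 s. Runs were at 25 °C or 37 °C as indicated per assay. KD was calculated as kd/ka and t1/2 as ln2/(60·kd) in min, from the fitted rate constants.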

Activin A [8] = molecular target: T1, Activin A; assay: SPR, captured mAb, 37C
Method in brief: as §2

Activin A [9] = molecular target: T1, Activin A; assay: Octet cross-competition; binder on anti-hFc tip; 50 nM hActivin A pre-bound with 1 uM H4H10432P2 (col 7); black box
Experimental: as §1

Activin A [10] = molecular target: T1, Activin A; assay: Octet cross-competition; binder on anti-hFc tip; 50 nM hActivin A pre-bound with 1 uM Control 1 (col 10); black box
Experimental: as §1

Activin B [11] = molecular target: T2, Activin B; assay: SPR, captured mAb, 25C
Method in brief: as §2

Activin A [12] = molecular target: T1, Activin A; assay: SPR, captured mAb, 25C
Method in brief: as §2

Activin A [13] = molecular target: T1, Activin A; assay: Octet cross-competition; binder on anti-hFc tip; 50 nM hActivin A pre-bound with 1 uM H4H10436P2 (col 8); black box
Experimental: as §1

Activin A [14] = molecular target: T1, Activin A; assay: Octet cross-competition; binder on anti-hFc tip; 50 nM hActivin A pre-bound with 1 uM H4H10468P2 (col 2); white box
Experimental: as §1

Activin A [15] = molecular target: T1, Activin A; assay: Octet cross-competition; binder on anti-hFc tip; 50 nM hActivin A pre-bound with 1 uM H4H10423P (col 4); white box
Experimental: as §1

Activin A [16] = molecular target: T1, Activin A; assay: Octet cross-competition; binder on anti-hFc tip; 50 nM hActivin A mixed with 1 uM Isotype control 13 (-) (col 13); dark grey box
Experimental: as §1

Activin A [17] = molecular target: T1, Activin A; assay: Octet cross-competition; binder on anti-hFc tip; 50 nM hActivin A pre-bound with 1 uM H4H10440P2 (col 9); black box
Experimental: as §1

Activin A [18] = molecular target: T1, Activin A; assay: Octet cross-competition; binder on anti-hFc tip; 50 nM hActivin A pre-bound with 1 uM H4H10429P (col 6); black box
Experimental: as §1

B1: H4H10429P (antibody, human IgG4, V domains shown)
VH: QVQLVESGGGVVQPGRSLRLSCVASGFTVSSYGIHWVRQAPGKGLEWVSVIWYDGRNKDYADSVKGRFTISRDNSKNTVYLEMKGLRAEDTALYYCARDKTGDFDSWGQGTLVTVSS
VL: DIQMTQSPSSLSASVGDRVTITCRASQNINSFLSWYQQKPGKAPKFLIYDASSIQSGAPSRFSGSGSGTDFTLTISSLQPEDFATYYCQQSYSSPFTFGQGTKLEIK
binding response (Activin A [1]): 1.24 | binding response (Activin A [2]): 1.4 | binding response (Activin A [3]): 0.65 | koff (Activin A [4]): ≤ 5e-05 s⁻¹ | binding response (Activin A [5]): 0.39 | binding response (Activin A [6]): -0.01 | 50 nM Ag Bound (RU) (Activin B [7]): 25.3 RU | Kd (Activin B [7]): 9.98 nM | koff (Activin B [7]): 0.0343 s⁻¹ | kon (Activin B [7]): 3.43e+06 M⁻¹ s⁻¹ | t1/2 (Activin B [7]): 0.3 min | Activin A-20 nM (RU) (Activin A [8]): 31.4 RU | Kd (Activin A [8]): ≤ 0.00375 nM | kon (Activin A [8]): 1.33e+07 M⁻¹ s⁻¹ | t1/2 (Activin A [8]): ≥ 231 min | binding response (Activin A [9]): 0.26 | binding response (Activin A [10]): 0.16 | 50 nM Ag Bound (RU) (Activin B [11]): 26.4 RU | Kd (Activin B [11]): 3.75 nM | koff (Activin B [11]): 0.0131 s⁻¹ | kon (Activin B [11]): 3.49e+06 M⁻¹ s⁻¹ | t1/2 (Activin B [11]): 0.9 min | Activin A-20 nM (RU) (Activin A [12]): 24.9 RU | Kd (Activin A [12]): 0.00817 nM | koff (Activin A [12]): 6.39e-05 s⁻¹ | kon (Activin A [12]): 7.82e+06 M⁻¹ s⁻¹ | t1/2 (Activin A [12]): 181 min | binding response (Activin A [13]): 0.34 | binding response (Activin A [14]): 1.37 | binding response (Activin A [15]): 1.39 | binding response (Activin A [16]): 0.24 | binding response (Activin A [17]): 0.29

B2: H4H10440P2 (antibody, human IgG4, V domains shown)
VH: EVQLVESGGGVVQPGGSLRLSCAASTFTFDDFAMHWVRQAPGKGLEWVSLITGDGGSTYYADPVKGRFTISRDNSKNSLYLQMNSLRTEDTALYYCVKDWWIAARPDYYYYGMDVWGQGTTVTVSS
VL: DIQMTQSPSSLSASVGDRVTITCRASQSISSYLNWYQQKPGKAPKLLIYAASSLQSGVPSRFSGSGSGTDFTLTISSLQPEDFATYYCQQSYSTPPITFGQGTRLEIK
binding response (Activin A [1]): 1.17 | binding response (Activin A [2]): 1.4 | binding response (Activin A [3]): 0.29 | binding response (Activin A [18]): 0.41 | binding response (Activin A [5]): 0.28 | binding response (Activin A [6]): -0.05 | 50 nM Ag Bound (RU) (Activin B [7]): 20.9 RU | Kd (Activin B [7]): 3.29 nM | koff (Activin B [7]): 0.00419 s⁻¹ | kon (Activin B [7]): 1.28e+06 M⁻¹ s⁻¹ | t1/2 (Activin B [7]): 2.8 min | Activin A-20 nM (RU) (Activin A [8]): 15.3 RU | Kd (Activin A [8]): 0.0515 nM | koff (Activin A [8]): 0.000328 s⁻¹ | kon (Activin A [8]): 6.37e+06 M⁻¹ s⁻¹ | t1/2 (Activin A [8]): 35.2 min | binding response (Activin A [9]): 0.27 | binding response (Activin A [10]): 0.13 | 50 nM Ag Bound (RU) (Activin B [11]): 18.8 RU | Kd (Activin B [11]): 1.09 nM | koff (Activin B [11]): 0.00116 s⁻¹ | kon (Activin B [11]): 1.06e+06 M⁻¹ s⁻¹ | t1/2 (Activin B [11]): 10 min | Activin A-20 nM (RU) (Activin A [12]): 12.9 RU | Kd (Activin A [12]): 0.0247 nM | koff (Activin A [12]): 9.28e-05 s⁻¹ | kon (Activin A [12]): 3.76e+06 M⁻¹ s⁻¹ | t1/2 (Activin A [12]): 124 min | binding response (Activin A [13]): 0.32 | binding response (Activin A [14]): 1.37 | binding response (Activin A [15]): 1.22 | binding response (Activin A [16]): 0.11
